Source: publication PMC9589210

Columns and labels:
[1] = target: microtubules polymerised from bovine brain tubulin (bovine (endogenous in brain)) (UniProt Q6B856)
[2] = target: microtubules polymerised from bovine brain tubulin (bovine (endogenous in brain)) (UniProt Q6B856); experiment: TIRF microscopy (fluorescence intensity of labeled Tau on microtubules); occupancy: 750 nM Alexa-647 Tau on dynamic microtubules grown from surface-held GMPCPP seeds with 5 μM tubulin, 1 mM GTP, TIRF assay buffer (BRB80, 10 mM DTT, oxygen scavenger), 37 °C; normalized average fluorescence intensity, seeds excluded
[3] = target: microtubules polymerised from bovine brain tubulin (bovine (endogenous in brain)) (UniProt Q6B856); experiment: TIRF microscopy (single-molecule imaging); 750 nM unlabeled Tau spiked with 300 pM Alexa-647-labeled Tau on dynamic microtubules (5 μM tubulin, 10% Alexa-488) grown from surface-held GMPCPP seeds, TIRF assay buffer, 37 °C, 10 frames/s
[4] = target: WT-Tau, 3RS isoform, Alexa 488-labeled (construct for FCS) (UniProt P10636); experiment: fluorescence correlation spectroscopy (FCS); ~20 nM Alexa 488-labeled Tau, tubulin titrated 0.5-10 μM, nonpolymerizing conditions, BRB80 (80 mM Pipes, 1 mM EGTA, 1 mM MgCl2, pH 6.9), 20 °C, 5 min incubation; diffusion times normalised to that without tubulin and fit to a binding model
[5] = target: R5L-Tau, 3RS isoform, Alexa 488-labeled (construct for FCS) (UniProt P10636); experiment: as above

| Substance | microtubule growth rate at the minus end, dynamic microtubules with 750 nM unlabeled Tau (TIRF) [1] | microtubule growth rate at the plus end, dynamic microtubules with 750 nM unlabeled Tau (TIRF) [1] | microtubule shrinkage rate at the minus end, dynamic microtubules with 750 nM unlabeled Tau (TIRF) [1] | microtubule shrinkage rate at the plus end, dynamic microtubules with 750 nM unlabeled Tau (TIRF) [1] | relative normalized fluorescence intensity of Tau on dynamic microtubules [2] | dwell time of diffusive events [3] | dwell time of static events [3] | percent static binding [3] | increase of the normalized diffusion time of Tau at saturation [4] | increase of the normalized diffusion time of Tau at saturation [5] |
| --- | --- | --- | --- | --- | --- | --- | --- | --- | --- | --- |
| R5L-Tau, 3RS isoform (construct for TIRF microscopy), Alexa 647-labeled (from UniProt P10636-2 1-352) (natural protein) | 0.41 μm/min | 1.04 μm/min | 10.4 μm/min | 11 μm/min | 0.68 | 0.5 s | 0.7 s | 18% | – | – |
| tubulin (free, soluble), purified from bovine brain (from UniProt Q6B856 1-445) (complex) | – | – | – | – | – | – | – | – | 50% | 50% |
| WT-Tau, 3RS isoform (construct for TIRF microscopy), Alexa 647-labeled (from UniProt P10636-2 1-352) (natural protein) | 0.4 μm/min | 1 μm/min | 7.12 μm/min | 7.55 μm/min | 1 | 0.6 s | 0.7 s | 43% | – | – |
